# The Immune Epitope Database (IEDB)
# What was measured:
# HLA-A*69:01 = experiment: IEDB peptide-MHC binding, purified MHC/competitive/fluorescence; filed as Kd, often an IC50 or EC50 that approximates it; ≥ and ≤ were set here for values at or beyond the usual limits of such assays
# HLA-A*02:01 [1] = experiment: as above
# HLA-A*02:19 = experiment: as above
# HLA-A*02:03 = experiment: as above
# HLA-A*02:11 = experiment: as above
# HLA-A*02:12 = experiment: as above
# HLA-B*57:01 [2] = experiment: as above
# HLA-A*26:01 = experiment: as above
# HLA-A*23:01 = experiment: as above
# HLA-A*68:02 = experiment: as above
# HLA-B*18:01 = experiment: as above
# HLA-B*27:03 = experiment: as above
# HLA-B*39:01 = experiment: as above
# HLA-A*24:03 = experiment: as above
# HLA-B*15:01 [3] = experiment: as above
# HLA-A*29:02 = experiment: as above
# HLA-B*51:01 [4] = experiment: as above
# HLA-A*03:01 [5] = experiment: as above
# HLA-B*46:01 [6] = experiment: as above
# HLA-A*02:16 = experiment: as above
# HLA-B*08:01 = experiment: as above
# HLA-B*07:02 = experiment: as above; conditions: source organism: Yersinia pestis Nepal516
# HLA-A*31:01 [7] = experiment: as above; conditions: source organism: Entamoeba histolytica HM-1:IMSS
# HLA-B*15:17 [8] = experiment: as above; conditions: source organism: Burkholderia pseudomallei K96243
# HLA-B*27:05 = experiment: IEDB peptide-MHC binding, purified MHC/direct/fluorescence; filed as Kd, often an IC50 or EC50 that approximates it; ≥ and ≤ were set here for values at or beyond the usual limits of such assays; conditions: source organism: Mycobacterium tuberculosis
# HLA-B*57:01 [9] = experiment: as above; conditions: source organism: Mycobacterium tuberculosis
# HLA-A*02:01 [10] = experiment: as above; conditions: source organism: Mycobacterium tuberculosis
# HLA-B*15:09 = experiment: as above; conditions: source organism: Mycobacterium tuberculosis str. Haarlem
# HLA-B*40:01 = experiment: as above; conditions: source organism: Mycobacterium tuberculosis
# HLA-B*15:01 [11] = experiment: as above; conditions: source organism: Mycobacterium tuberculosis
# HLA-A*01:01 = experiment: as above; conditions: source organism: Mycobacterium tuberculosis
# HLA-B*15:17 [12] = experiment: as above; conditions: source organism: Mycobacterium tuberculosis
# HLA-B*51:01 [13] = experiment: as above; conditions: source organism: Mycobacterium tuberculosis
# HLA-A*03:01 [14] = experiment: as above; conditions: source organism: Mycobacterium tuberculosis
# HLA-B*58:01 = experiment: as above; conditions: source organism: Mycobacterium tuberculosis
# HLA-B*48:01 = experiment: as above; conditions: source organism: Mycobacterium tuberculosis
# HLA-A*31:01 [15] = experiment: as above; conditions: source organism: Mycobacterium tuberculosis
# HLA-B*46:01 [16] = experiment: as above; conditions: source organism: Mycobacterium tuberculosis
# HLA-A*11:01 = experiment: IEDB peptide-MHC binding, purified MHC/competitive/fluorescence; filed as Kd, often an IC50 or EC50 that approximates it; ≥ and ≤ were set here for values at or beyond the usual limits of such assays; conditions: source organism: Mycobacterium tuberculosis variant bovis BCG str. Pasteur 1173P2
# HLA-A*30:01 = experiment: as above; conditions: source organism: Mycobacterium tuberculosis variant bovis BCG str. Pasteur 1173P2
# [17] = source organism: Human immunodeficiency virus 1
# [18] = source organism: Plasmodium yoelii yoelii
# [19] = source organism: Cryptosporidium parvum Iowa II
# [20] = source organism: Yersinia pestis Nepal516
# [21] = source organism: Entamoeba histolytica HM-1:IMSS
# [22] = source organism: Burkholderia pseudomallei K96243
# [23] = source organism: Mycobacterium tuberculosis variant bovis BCG str. Pasteur 1173P2
sequence,measurement,setting,value
GLADQLIHM,Kd,HLA-A*69:01; [17],≥ 20 µM
same,Kd,HLA-A*02:01 [1]; [17],0.0837 µM
same,Kd,HLA-A*02:19; [17],0.155 µM
same,Kd,HLA-A*02:03; [17],0.0024 µM
same,Kd,HLA-A*02:11; [17],0.0008 µM
KPPRGVLLY,Kd,HLA-A*69:01; [18],≥ 20 µM
same,Kd,HLA-A*02:12; [18],≥ 20 µM
same,Kd,HLA-B*57:01 [2]; [18],≥ 20 µM
same,Kd,HLA-A*26:01; [18],≥ 20 µM
same,Kd,HLA-A*23:01; [18],≥ 20 µM
same,Kd,HLA-A*02:01 [1]; [18],≥ 20 µM
same,Kd,HLA-A*68:02; [18],≥ 20 µM
same,Kd,HLA-B*18:01; [18],≥ 20 µM
same,Kd,HLA-A*02:19; [18],≥ 20 µM
same,Kd,HLA-B*27:03; [18],≥ 20 µM
same,Kd,HLA-B*39:01; [18],≥ 20 µM
same,Kd,HLA-A*24:03; [18],≥ 20 µM
same,Kd,HLA-B*15:01 [3]; [18],≥ 20 µM
same,Kd,HLA-A*02:03; [18],≥ 20 µM
same,Kd,HLA-A*29:02; [18],0.115 µM
same,Kd,HLA-B*51:01 [4]; [18],≥ 20 µM
same,Kd,HLA-A*03:01 [5]; [18],≥ 20 µM
same,Kd,HLA-B*46:01 [6]; [18],≥ 20 µM
LTAPCDIYV,Kd,HLA-B*57:01 [2]; [19],≥ 20 µM
same,Kd,HLA-A*26:01; [19],≥ 20 µM
same,Kd,HLA-A*23:01; [19],≥ 20 µM
same,Kd,HLA-A*02:01 [1]; [19],≥ 20 µM
same,Kd,HLA-B*18:01; [19],≥ 20 µM
same,Kd,HLA-A*02:19; [19],≥ 20 µM
same,Kd,HLA-B*27:03; [19],≥ 20 µM
same,Kd,HLA-A*02:16; [19],0.0005 µM
same,Kd,HLA-B*39:01; [19],≥ 20 µM
same,Kd,HLA-A*24:03; [19],≥ 20 µM
same,Kd,HLA-B*15:01 [3]; [19],≥ 20 µM
same,Kd,HLA-A*29:02; [19],≥ 20 µM
same,Kd,HLA-B*51:01 [4]; [19],≥ 20 µM
same,Kd,HLA-A*03:01 [5]; [19],≥ 20 µM
same,Kd,HLA-A*02:11; [19],≥ 20 µM
same,Kd,HLA-B*46:01 [6]; [19],≥ 20 µM
MPLKVQVCI,Kd,HLA-B*08:01; [20],0.816 µM
same,Kd,HLA-B*07:02,0.304 µM
same,Kd,HLA-B*51:01 [4]; [20],1.27 µM
RSLVCLAPK,Kd,HLA-A*69:01; [21],≥ 20 µM
same,Kd,HLA-A*02:12; [21],≥ 20 µM
same,Kd,HLA-B*57:01 [2]; [21],≥ 20 µM
same,Kd,HLA-A*26:01; [21],≥ 20 µM
same,Kd,HLA-A*23:01; [21],≥ 20 µM
same,Kd,HLA-A*02:01 [1]; [21],≥ 20 µM
same,Kd,HLA-A*68:02; [21],≥ 20 µM
same,Kd,HLA-B*18:01; [21],≥ 20 µM
same,Kd,HLA-A*02:19; [21],≥ 20 µM
same,Kd,HLA-B*27:03; [21],≥ 20 µM
same,Kd,HLA-A*02:16; [21],≥ 20 µM
same,Kd,HLA-B*39:01; [21],≥ 20 µM
same,Kd,HLA-A*24:03; [21],≥ 20 µM
same,Kd,HLA-B*15:01 [3]; [21],≥ 20 µM
same,Kd,HLA-A*02:03; [21],≥ 20 µM
same,Kd,HLA-A*29:02; [21],≥ 20 µM
same,Kd,HLA-B*51:01 [4]; [21],≥ 20 µM
same,Kd,HLA-A*02:11; [21],≥ 20 µM
same,Kd,HLA-A*31:01 [7],0.0465 µM
same,Kd,HLA-B*46:01 [6]; [21],≥ 20 µM
SELTVSPPD,Kd,HLA-A*69:01; [22],≥ 20 µM
same,Kd,HLA-A*02:12; [22],≥ 20 µM
same,Kd,HLA-B*57:01 [2]; [22],≥ 20 µM
same,Kd,HLA-A*26:01; [22],≥ 20 µM
same,Kd,HLA-A*02:01 [1]; [22],≥ 20 µM
same,Kd,HLA-A*68:02; [22],≥ 20 µM
same,Kd,HLA-B*18:01; [22],0.845 µM
same,Kd,HLA-A*02:19; [22],≥ 20 µM
same,Kd,HLA-B*27:03; [22],≥ 20 µM
same,Kd,HLA-A*02:16; [22],≥ 20 µM
same,Kd,HLA-B*39:01; [22],≥ 20 µM
same,Kd,HLA-A*24:03; [22],≥ 20 µM
same,Kd,HLA-B*15:01 [3]; [22],≥ 20 µM
same,Kd,HLA-B*15:17 [8],≥ 20 µM
same,Kd,HLA-A*02:03; [22],≥ 20 µM
same,Kd,HLA-B*51:01 [4]; [22],≥ 20 µM
same,Kd,HLA-A*03:01 [5]; [22],≥ 20 µM
same,Kd,HLA-B*46:01 [6]; [22],≥ 20 µM
YPARVKCAL,Kd,HLA-B*27:05,≥ 20 µM
same,Kd,HLA-B*57:01 [9],≥ 20 µM
same,Kd,HLA-A*02:01 [10],≥ 20 µM
same,Kd,HLA-B*15:09,1.09 µM
same,Kd,HLA-B*40:01,≥ 20 µM
same,Kd,HLA-B*15:01 [11],≥ 20 µM
same,Kd,HLA-A*01:01,≥ 20 µM
same,Kd,HLA-B*15:17 [12],≥ 20 µM
same,Kd,HLA-B*51:01 [13],≥ 20 µM
same,Kd,HLA-A*03:01 [14],≥ 20 µM
same,Kd,HLA-B*58:01,≥ 20 µM
same,Kd,HLA-B*48:01,≥ 20 µM
same,Kd,HLA-A*31:01 [15],≥ 20 µM
same,Kd,HLA-B*46:01 [16],≥ 20 µM
same,Kd,HLA-A*69:01; [23],≥ 20 µM
same,Kd,HLA-A*11:01,≥ 20 µM
same,Kd,HLA-B*08:01; [23],0.097 µM
same,Kd,HLA-B*39:01; [23],0.0229 µM
same,Kd,HLA-A*30:01,2.54 µM
